28 molecules from patent US20170224620A1 (Pfizer, published 2017) can be followed below.

Bridges are numbered along the chain shown (N, C = ends). Primed or numbered codes have the meaning given here. Side-chain parts run from the residue outwards. [ ]: non-standard residue; d: D form. The star is where a group is joined. Trp(5-OMe) = COc1ccc2[nH]cc(C[C@H](N)C(=O)O)c2c1; Igl = N[C@H](C(=O)O)C1Cc2ccccc2C1; Pen = CC(C)(S)[C@H](N)C(=O)O; DBCO′ = dibenzocyclooctyne; PEG4′ = not defined here; Acm = CC(=O)NC*

Experiment [1] concerns the target T1, Fc tagged recombinant human EGFR (rhEGFR-Fc, R&D systems, Cat#344-ER-050) (human, UniProt P00533 25-645).
T1 construct: Bought protein; also called apo-EGFR; not shown: Fc tag
Kind of experiment: screening ELISA, peptide 100 µM against 0.7 nM biotin-EGF on coated rhEGFR. (In general: ELISA stands for enzyme-linked immunosorbent assay.)

The target of experiment [2] is T1, Fc tagged recombinant human EGFR …. Kind of experiment: SPR, peptide over captured rhEGFR-Fc, without EGF. On the procedure:
(§1) Surface plasmon resonance (SPR) binding studies were carried out on a Biacore T200 instrument (GE Healthcare). […] The contact time and resulting amount of rhEGFR-Fc capture was varied based on the nature of the analyte, namely whether it was a peptide or nanoparticle.
(§2) Peptide binding assays were carried out in 10 mM PBS buffer supplemented with 0.05% surfactant P20 and 5% DMSO by volume, at 25° C. Peptides were injected over the rhEGFR-Fc surface for 60 s, followed by dissociation (buffer injection) for 60 s and regeneration with a 10 s pulse of 3M MgCl₂. A fresh rhEGFR-Fc surface was generated for each concentration of each peptide tested. Peptide binding data was analyzed by fitting to a 1:1 Langmuir kinetic model to obtain the on-rate (kₐ), off-rate (kd) and/or equilibrium binding constant (KD) of the interaction.
The two aromatic mutations P₂₋₉₈ and P₂₋₁₀₁ were combined into one peptide (P₂₋₁₀₂).
For orientation: SPR reads the build-up and loss of mass on a sensor chip optically.

Experiment [3] has as its target T2, EGF bound EGFR (rhEGFR-Fc with recombinant human EGF pre-injected in SPR or 50 nM EGF present in ELISA) (human, UniProt P00533 25-645; P01133 971-1023).
T2 construct: Complex of m1 and m5 as target; also called EGFR in the presence of EGF; With EGF; not shown: Fc tag
In words: SPR, peptide over captured rhEGFR-Fc after rhEGF pre-injection. The protocol: as §1, §2

The target of experiment [4] is T2, EGF bound EGFR (rhEGFR-Fc with …). Kind of experiment: P2 competition ELISA, 5% nanoparticle conjugate.
For experiment [5] the target is unchanged. In words: P2 competition ELISA, 5% ligand density NP.
In experiment [6] the target is T1, Fc tagged recombinant human EGFR …. Kind of experiment: SPR.
Experiment [7] deals with EGF bound EGFR (rhEGFR-Fc with recombinant human EGF pre-injected in SPR or 50 nM EGF present in ELISA) (human) (UniProt P00533). In words: P2 competition ELISA, 5% nanoparticle conjugate.
In experiment [8] the target is T2, EGF bound EGFR (rhEGFR-Fc with …). Kind of experiment: P2 competition ELISA, 1% ligand density NP.
The target is the same in experiment [9]. In words: P2 competition ELISA: rhEGFR on the plate, 1 nM P2-Biotin dimer as tracer, 50 nM EGF; concentration on a ligand molar basis. An excerpt: An additional assay was developed to provide an orthogonal assay to SPR during the evaluation of the P₂ peptide analogs and nanoparticle conjugates.
For experiment [10], the target named is T1, Fc tagged recombinant human EGFR …. Kind of experiment: SPR, response against peptide concentration, rhEGFR-Fc captured. On the procedure:
as §1, §2
All of the peptides were synthesized and evaluated for EGFR binding using SPR (Table 7). […] FIGS. 8A and 8B show a summary of the SPR binding data for the peptides.

For H-GYIGERCQYR-NH2 [EGFf-8], the “% inhibition of EGF” value in [1] is < 20%.

B1: P2-55 (Ac-DPPen…enLQGGK(PEG4-DBCO)-CONH2) (peptide)
peptide: DPXTWEVWGREXLQGGK
modifications: N-terminal acetyl; penicillamine at 3 and 12, disulfide; Lys17(PEG4-DBCO); C-terminal amide
notes: also called Pen analog
As usually defined, the Kd is the free concentration of one partner at which half of the binding sites on the other are occupied at equilibrium, for simple one-to-one binding. Consider B1, for which the equilibrium dissociation constant (Kd) in [2] was determined as 74 nM; in experiment [3] it was 69 nM.
Take Ac-DP[Pen]T[Igl]EV[Trp(5-OMe)]GRE[Pen]LQGGK(DBCO′)-NH2 (disulfide 3-12, also called Aro PenPen) [P2-55/102 (Ac-DPPenT(2Ind)GEV(5MeO)WGREPenLQGGK(DBCO)-CONH2)]: the dissociation constant (Kd) turned out to be 72 nM in experiment [2] and 75.4 nM in experiment [3].

B2: 5% P2-2/55 nanoparticle (other)
peptide: DAXTWEVWGREXLQGGK
modifications: not fully specified; N-terminal acetyl; penicillamine at 3 and 12, disulfide; Lys17(DBCO) clicked to azide PLA-PEG nanoparticle at 5%; C-terminal amide
notes: also called P2-2/55 [DA PenPen]; NP; Ala2-Pen
The IC50 is the concentration needed to halve the response being measured. Consider B2, for which, in experiment [4], the IC50 was 6.3 µg/mL and the “Rel. Diff. (against P2 NP)” value stood at 1.05 ratio.

B3: P2-2/55 (Ac-DAPen…enLQGGK(DBCO)-CONH2) (peptide)
peptide: DAXTWEVWGREXLQGGK
modifications: N-terminal acetyl; penicillamine at 3 and 12, disulfide; Lys17(DBCO); C-terminal amide
notes: also called DA PenPen
Turning to B3, the Kd in [2] is 137 nM; in experiment [3], 97 nM.

B4: P2-2/55/102 (Ac-DAPenT(2Ind)GEV(5MeO)WGREPenLQGGK(DBCO)-CONH2) (peptide)
peptide: Ac-DA[Pen]T[Igl]EV[Trp(5-OMe)]GRE[Pen]LQGGK(DBCO′)-NH2
modifications: disulfide 3-12
notes: also called DA Aro PenPen; triple mutant
Take B4: the values for the Kd in experiment [2] and in experiment [3] were 53 nM and 33.4 nM, respectively.
For the molecule H-RCQYRDLKWW-NH2 [EGFf-9], in experiment [1], the “% inhibition of EGF” value is 63.8%.

B5: EGFf-7 (peptide)
peptide: H-C(Acm)NCVVGYIGE-NH2
SMILES: CC[C@H](C)[C@H](NC(=O)[C@H](Cc1ccc(O)cc1)NC(=O)CNC(=O)[C@@H](NC(=O)[C@@H](NC(=O)[C@H](CS)NC(=O)[C@H](CC(N)=O)NC(=O)[C@@H](N)CSCNC(C)=O)C(C)C)C(C)C)C(=O)NCC(=O)N[C@@H](CCC(=O)O)C(N)=O
Regarding B5, the “% inhibition of EGF” value in experiment [1] was < 20%.

B6: 5% P2-55 nanoparticle (other)
peptide: DPXTWEVWGREXLQGGK
modifications: not fully specified; N-terminal acetyl; penicillamine at 3 and 12, disulfide; Lys17(PEG4-DBCO) clicked to azide PLA-PEG nanoparticle at 5%; C-terminal amide
notes: also called P2-55 5% Ligand Density NP; Pen analog NP
As for B6, in experiment [5], the IC50 turned out to be 3.4 µg/mL and the “Rel IC50 (against P2 NP)” value amounted to 0.79 ratio.
Regarding Ac-CFPAAPDWLSCGGK(DBCO′)-NH2 (disulfide 1-11 (inferred)) [P1-3-6], the binding result in experiment [6] was “no binding”.
Turning to H-NSDSECPLSH-NH2 [EGFf-1], the “% inhibition of EGF” value in experiment [1] is < 20%.
As to Ac-DA[Pen]T[Igl]EV[Trp(5-OMe)]GRE[Pen]LQGGK(DBCO′)-NH2 (disulfide 3-12; not fully specified) [5% P2-2/55/102 nanoparticle], in experiment [7], the IC50 was 1.6 µg/mL and the Rel. Diff. (against P2 NP) was 0.27.
For H-YRDLKWWELR-NH2 [EGFf-10], the “% inhibition of EGF” value in experiment [1] was < 20%.
For the molecule Ac-DPCTWEVWGRECLQGGK-NH2 (other, disulfide 3-12; not fully specified (residue 17), also called P2 1% Ligand Density NP) [1% P2 nanoparticle], the IC50 in experiment [8] turned out to be 81 µg/mL. Also, in experiment [9], the “IC50 (read off the curve)” value is ~30 nM.

B7: 5% P2 nanoparticle (other)
peptide: Ac-DPCTWEVWGRECLQGGK-NH2
modifications: disulfide 3-12; not fully specified (residue 17)
notes: also called P2 5% Ligand Density NP; parent P2 conjugated nanoparticle (5%)
For the molecule B7, the IC50 in experiment [4] was determined as 6 µg/mL; in [5], 4.3 µg/mL. Also, in experiment [9], the “IC50 (read off the curve)” value is ~9 nM.
As for Ac-CFPAAPDWLSCGGK(DBCO′)-NH2 (disulfide 1-11 (inferred)) [P1-3-7], in experiment [6], the binding result was “no binding”.
Take Ac-DACTWEVWGRECLQGGK-NH2 (other, disulfide 3-12; not fully specified (residue 17), also called P2-2 1% Ligand Density NP) [1% P2-2 nanoparticle]: in experiment [8], the IC50 was determined as 17 µg/mL and the “Rel IC50 (against P2 NP)” value is 0.2 ratio.
As to Ac-DACT[Igl]EV[Trp(5-OMe)]GRECLQGGK(DBCO′)-NH2 (disulfide 3-12, also called DA Aro) [P2-2/102 (Ac-DACT(2Ind)GEV(5MeO)WGRECLQGGK(DBCO)-CONH2)], the values for the Kd in [2] and in experiment [3] were 23.8 nM and 23.3 nM, respectively.
For Ac-DPCT[Igl]EV[Trp(5-OMe)]GRECLQGGK([PEG4′-DBCO′])-NH2 (other, disulfide 3-12; not fully specified) [1% P2-102 nanoparticle], in experiment [8], the IC50 was found to be 7.6 µg/mL and the “Rel IC50 (against P2 NP)” value was 0.09 ratio.
On to Ac-DPCT[Igl]EV[Trp(5-OMe)]GRECLQGGK(PEG4‑DBCO)-NH2 (disulfide 3-12, also called aromatic analog) [P2-102 (Ac-DPCT(2Ind)GEV(5MeO)WGRECLQGGK(PEG4-DBCO)-CONH2)], for which the Kd worked out at 38 nM in experiment [2] and 32 nM in experiment [3].

B8: 1% P2-55 nanoparticle (other)
peptide: DPXTWEVWGREXLQGGK
modifications: not fully specified; N-terminal acetyl; penicillamine at 3 and 12, disulfide; Lys17(PEG4-DBCO) clicked to azide PLA-PEG nanoparticle at 1%; C-terminal amide
notes: also called P2-55 1% Ligand Density NP
With B8, in experiment [8], the concentration for half-maximal inhibition (IC50) was 135 µg/mL and the “Rel IC50 (against P2 NP)” value came out at 1.67 ratio.
In the case of Ac-SGCLDALWQCVY-NH2 (disulfide 3-10 (inferred), named singly only on the sheet) [Peptide 4], the binding result in experiment [10] is “binds”.
With {DBCO′}-SECFPAAPDWLSCIL-NH2 (disulfide 3-13 (inferred), also called Alternate DBCO placement) [P1-3-14], in [6], the binding result is given as “no binding”.

B9: Peptide 1 (peptide)
peptide: Ac-SECFPLAPDWLSCIL-NH2
modifications: disulfide 3-13 (inferred)
notes: named singly only on the sheet; also called free literature peptide without the GGK(DBCO) tail
B9: the binding result in experiment [10] is recorded as “binds”.
Turning to Ac-MFCFRWYAGWSCVS-NH2 (disulfide 3-12 (inferred), named singly only on the sheet) [Peptide 8], in experiment [10], the binding result is on record as “binds”.

B10: EGFf-6 (peptide)
peptide: H-LDKYACNC(Acm)VV-NH2
SMILES: CC(=O)NCSC[C@H](NC(=O)[C@H](CC(N)=O)NC(=O)[C@H](CS)NC(=O)[C@H](C)NC(=O)[C@H](Cc1ccc(O)cc1)NC(=O)[C@H](CCCCN)NC(=O)[C@H](CC(=O)O)NC(=O)[C@@H](N)CC(C)C)C(=O)N[C@H](C(=O)N[C@H](C(N)=O)C(C)C)C(C)C
With B10, the “% inhibition of EGF” value in experiment [1] was < 20%.
In the case of Ac-DP[Pen]T[Igl]EV[Trp(5-OMe)]GRE[Pen]LQGGK(DBCO′)-NH2 (disulfide 3-12; not fully specified) [5% P2-55/102 nanoparticle], in experiment [7], the concentration for half-maximal inhibition (IC50) was 2.2 µg/mL and the Rel. Diff. (against P2 NP) was determined as 0.37.
Regarding Ac-DACT[Igl]EV[Trp(5-OMe)]GRECLQGGK(DBCO′)-NH2 (disulfide 3-12; not fully specified) [5% P2-2/102 nanoparticle], in experiment [7], the concentration for half-maximal inhibition (IC50) was 3.7 µg/mL and the Rel. Diff. (against P2 NP) turned out to be 0.62.
